Reference: US6335019B1, “Methods for treating sensitivity to protein allergen using peptides which include a T cell epitope recognized by a T cell receptor specific for the protein allergen” (Immulogic Pharmaceutical Corp., priority 1989, dated 2002)

What was measured:
[1] = test system: goat anti-Amb a I antibody; assay: Western blot of E. coli-expressed recombinant Amb a I / Amb a II with goat anti-Amb a I antibody (FIG. 19); assay type: binding
Procedure: (§1) Furthermore, full-length and truncated cDNAs encoding several members of the Amb a I multigene family, as well as Amb a II, were cloned in-frame into the expression vector pTrc99 (Amann et al. Gene, 69:301-315, (1988)) and transformed into the JM109 host. Expression of recombinant Amb a I and Amb a II protein was induced by 1 mM isopropyl-β-D-thiogalactopyranoside, cells were harvested, lysozyme treated, sonicated and insoluble inclusion bodies recovered by a low speed centrifugation. Recombinant Amb a I and Amb a II protein present in the recovered pellet was solubilized in buffer containing 8M urea, 50 mM Tris HC1 pH8.0, 50 mM NaCl, 1 mM EDTA, 1 mM dithiothreitol, 1 mM phenylmethylsulfonyl fluoride. After solubilization, the crude urea lysate was dialyzed at 4° C. against PBS. […] This antigenic cross-reactivity is consistent with the observed sequence homology of the cDNAs (see FIG. 16).
Isoelectric focusing was done on a Hoeffer gel apparatus with 15 μg of crude soluble pollen protein. The gel consisted of 7.5% acrylamide with 3.5% Pharmalytes pH 4.5-5.3 (Pharmacia) and 3.5% Ampholines pH 3.5-10 (LKB), run at 13W for 3.5 hours until a constant voltage was reached. The gel section was placed on a slab of 10% acrylamide SDS-PAGE and electrophoresed for 3.5 hours at 40 mA according to the protocol cited. The proteins were transferred overnight in phosphate buffer to 0.1 micron nitrocellulose (Schleicher and Schuell) at 0.2A. The blot was rinsed in blot solution (25 mM Tris-CHl pH 7.5, 0.171 M NaCl, 0.05% Tween-20; Sigma). The first antibody incubation was overnight at room temperature with a […] of goat anti-Amb a I IgC (obtained from Dr. David Marsh) in blot solution. The excess first antibody was removed with three 15 minute rinses with blot solution. The second antibody was a 1:2,500 dilution of biotinylated swine anti-goat IgG (Boehringer-Manneheim) in blot solution for two hours. The blot was then rinsed with blot solution three times for 15 minutes and incubated for 1 hr in blot solution with 2 μCi I^125 streptavidin (Amersham). The blots were rinsed with blot solution until the waste wash was down to background. The blot was then exposed to film at —80° C. overnight. In the case of one-dimensional SDS-PAGE Western blots (FIGS. 17, 19 and 20) the isoelectric focusing step was omitted. When human sera was used to probe the Western blots (FIGS. 17 and 20), 10% human plasma in 1% milk in blot solution was incubated overnight with the blot prior to using as second antibody biotinylated goat anti-human IgE.

[2] = test system: human IgE (ragweed allergic patient sera); assay: SDS-PAGE Western blot (and ELISA) of ragweed allergic patient IgE binding to pollen, affinity purified and recombinant Amb a I / Amb a II; design: key to IgE binding, summarized Western blot data: −: no signal over background; +−: barely discernable over background; +: clearly positive; ++: strongly positive; +++: highly positive; details: for Extent of specific IgE binding relative to Amb a IB or Amb a II (in words): patient #295, FIG. 20; for Human IgE binding (in words): Western blot (FIG. 17) and/or ELISA, ragweed allergic patient IgE
Procedure: As represented in FIG. 1A, a selected monoclonal antibody (designated 4B5/B7) which recognizes an Amb a I preparation unsubjected to denaturing conditions was used to affinity purify from pollen extract a single protein, which is referred to as affinity purified Amb a I. This was carried out, using known techniques, by producing the desired monoclonal antibody, isolating it in large quantities from ascites and immobilizing it on Sepharose (Pharmacia). Aqueous pollen extract was passed over the monoclonal antibody-containing column and a protein species was eluted.
as §1
Comparison of human IgE binding to recombinant Amb a I and Amb a II proteins with anti-peptide and monoclonal anti-Amb a I antibodies have provided data consistent with the conclusion that the N-terminal portion (historically referred to as the β-region) of Amb a IA includes the major IgE eptiope(s).
Affinity purified Amb a I was electrophoresed, Western transferred (Towbin et al., Proc. Natl. Acad. Sci. USA, 76:4350 (1979)) and probed with a variety of antibodies, including IgE from an allergic patient (FIG. 17). In pollen extract Amb a I is not only present as an intact 38-KD species, but also characterized by its component 26KD alpha chains and 12-KD beta chains which are formed by enzymatic cleavage. The intact 38-KD species and the alpha chain are clearly detected using rabbit anti-Amb a I, polyclonal affinity purified anti-RAE 16 and monoclonal anti-Amb a I JBIE3-4 (FIG. 17); RAE 16 peptide has the sequence RTDKDLLENGAIC derived from amino-acids […] of Amb a IB, FIG. 16). Affinity purified Amb a I (partial sequence presented in Table 1) as well as chromatographically purified Amb a II (partial sequence presented in Table 2) are bound on Western blots by these antibodies as well as by patient IgE (FIG. 17). The goat anti-Amb a I polyclonal antibody also binds multiple Amb a I and Amb a II species on a two dimensional Western blot of pollen extract (FIG. 18). The Western blot was performed as outlined below. […]

B1: Amb a IC: E. coli expressed recombinant Amb a IC, used as crude bacterial lysate (protein)
chain: LYFTLALVALLQPVRSAEGVGEILPSVNETRSLQACEALNIIDKCWRGKADWENNRQALADCAQGFAKGTYGGKWGDVYTVTSNLDDDVANPKEGTLRFAAAQNRPLWIIFKNDMVINLNQELVVNSDKTIDGRGVKVEIINGGLTLMNVKNIIIHNINIHDVKVLPGGMIKSNDGPPILRQASDGDTINVAGSSQIWIDHCSLSKSFDGLVDVTLGSTHVTISNCKFTQQSKAILLGADDTHVQDKGMLATVAFNMFTDNVDQRMPRCRFGFFQVVNNNYDRWGTYAIGGSSAPTILCQGNRFLAPDDQIKKNVLARTGTGAAESMAWNWRSDKDLLENGAIFVTSGSDPVLTPVQSAGMIPAEPGEAAIKLTSSAGVFSCRPGAPC
Binding by goat anti-Amb a I antibody (in words) [1]: binds specifically
IgE binding, summarized Western blot data ([2]; patient 151): +
IgE binding, summarized Western blot data ([2]; patient 222): +−
IgE binding, summarized Western blot data ([2]; patient 291): +++
IgE binding, summarized Western blot data ([2]; patient 295): +++
IgE binding, summarized Western blot data ([2]; patient 296): ++
Extent of specific IgE binding relative to Amb a IB or Amb a II (in words) [2]: far greater extent

B2: Amb a IB: E. coli expressed recombinant Amb a IB, used as crude bacterial lysate (protein)
chain: LYFTLALVTLLQPVRSAEDVEEFLPSANETRRSLKACEAHNIIDKCWRCKADWANNRQALADCAQGFAKGTYGGKHGDVYTVTSDKDDDVANPKEGTLRFAAAQNRPLWIIFKRNMVIHLNQELVVNSDKTIDGRGVKVNIVNAGLTLMNVKNIIIHNINIHDIKVCPGGMIKSNDGPPILRQQSDGDAINVAGSSQIWIDHCSLSKASDGLLDITLGSSHVTVSNCKFTQHQFVLLLGADDTHYQDKGMLATVAFNMFTDHVDQRMPRCRFGFFQVVNNNYDRWGTYAIGGSSAPTILSQGNRFFAPDDIIKKNVLARTGTGNAESMSWNWRTDRDLLENGAIFLPSGSDPVLTPEQKAGMIPAEPGEAVLRLTSSAGVLSCHQGAPC
Binding by goat anti-Amb a I antibody (in words) [1]: binds specifically
IgE binding, summarized Western blot data ([2]; patient 151): −
IgE binding, summarized Western blot data ([2]; patient 222): +−
IgE binding, summarized Western blot data ([2]; patient 291): −
IgE binding, summarized Western blot data ([2]; patient 295): +

B3: Amb a IA: full-length recombinant Amb a IA, amino acid 10-398, E. coli expressed, used as crude bacterial lysate (protein)
chain: LYFTLALVTLLQPVRSAEDLQEILPVNETRRLTTSGAYNIIDGCWRGKADWAENRKALADCAQGFGKGTVGGKDGDIYTVTSELDDDVANPKEGTLRFGAAQNRPLWIIFERDMVIRLDKEMVVNSDKTIDGRGAKVEIINAGFTLNGVKNVIIHNINMHDVKVNPGGLIKSNDGPAAPRAGSDGDAISISGSSQIWIDHCSLSKSVDGLVDAKLGTTRLTVSNSLFTQHQFVLLFGAGDENIEDRGMLATVAFNTFTDNVDQRMPRCRHGFFQVVNNNYDKWGSYAIGGSASPTILSQGNRFCAPDERSKKNVLGRHGEAAAESMKWNWRTNKDVLENGAIFVASGVDPVLTPEQSAGMIPAEPGESALSLTSSAGVLSCQPGAPC
Binding by goat anti-Amb a I antibody (in words) [1]: binds specifically
IgE binding, summarized Western blot data ([2]; patient 151): +
IgE binding, summarized Western blot data ([2]; patient 222): +−
IgE binding, summarized Western blot data ([2]; patient 291): +++
IgE binding, summarized Western blot data ([2]; patient 295): +++
IgE binding, summarized Western blot data ([2]; patient 296): ++
Extent of specific IgE binding relative to Amb a IB or Amb a II (in words) [2]: far greater extent

B4: affinity purified Amb a I: protein affinity purified from pollen extract with monoclonal antibody 4B5/B7 (protein)
chain: AEDLQEILPVNETRRLTTSGAYNIIDGCWRGKADWAENRKALADCAQGFGKGTVGGKDGDIYTVTSELDDDVANPKEGTLRFGAAQNRPLWIIFERDMVIRLDKEMVVNSDKTIDGRGAKVEIINAGFTLNGVKNVIIHNINMHDVKVNPGGLIKSNDGPAAPRAGSDGDAISISGSSQIWIDHCSLSKSVDGLVDAKLGTTRLTVSNSLFTQHQFVLLFGAGDENIEDRGMLATVAFNTFTDNVDQRMPRCRHGFFQVVNNNYDKWGSYAIGGSASPTILSQGNRFCAPDERSKKNVLGRHGEAAAESMKWNWRTNKDVLENGAIFVASGVDPVLTPEQSAGMIPAEPGESALSLTSSAGVLSCQPGAPC
Human IgE binding (in words) [2]: bind human IgE
Human IgE binding (in words) ([2]; listed as 4B5/B7 affinity purified Amb a I): readily detectable IgE reactivity
Human IgE binding (in words) ([2]; listed as Affinity purified Amb a I): bound
